The values that follow come from the supplement of paper PMC5998384.

Data set [1] deals with HeLa Kyoto. As to the kind of experiment: solubility change mitosis vs G1/S (difference of NP-40 vs SDS log2 ratios) (log2 ratio difference); higher = more soluble in mitosis.
For data set [2], the system named is HeLa Kyoto. As to the kind of experiment: solubility in G1/S (NP-40 vs SDS abundance) (log2 ratio); higher = more soluble. To be noted: cell cycle stage: G1/S.
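Wherever solubility change mitosis vs G1/S (difference of NP-40 vs SDS log2 ratios) is given: synchronized HeLa Kyoto cells (double thymidine block for G1/S, nocodazole release for mitosis), protein amounts in NP-40 versus SDS lysates quantified by mass spectrometry, three biological replicates.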
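Wherever solubility in G1/S (NP-40 vs SDS abundance) is given: HeLa Kyoto cells arrested at G1/S by double thymidine block, proteins quantified by TMT10plex mass spectrometry in mild NP-40 versus SDS extracts, three biological replicates.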

“MGIQGLLQFIKEASEPIHVRKYKGQVVAVDTYCWLHKGAIACAEKLAKGEPTDRYVGFCMKFVNMLLSHGIKPILVFDGCTLPSKKEVERSRRERRQANLLKGKQLLREGKVSEARECFTRSINITHAMAHKVIKAARSQGVDCLVAPYEADAQLAYLNKAGIVQAIITEDSDLLAFGCKKVILKMDQFGNGLEIDQARLGMCRQLGDVFTEEKFRYMCILSGCDYLSSLRGIGLAKACKVLRLANNPDIVKVIKKIGHYLKMNITVPEDYINGFIRANNTFLYQLVFDPIKRKLIPLNAYEDDVDPETLSYAGQYVDDSIALQIALGNKDINTFEQIDDYNPDTAMPAHSRSHSWDDKTCQKSANVSSIWHRNYSPRPESGTVSDAPQLKENPSTVGVERVISTKGLNLPRKSSIVKRPRSAELSEDDLLSQYSLSFTKKTKKNSSEGNKSLSFSEVFVPDLVNGPTNKKSVSTPPRTRNKFATFLQRKNEESGAVVVPGTRSRFFCSSDSTDCVSNKVSIQPLDETAVTDKENNLHESEYGDQEGKRLVDTDVARNSSDDIPNNHIPGDHIPDKATVFTDEESYSFESSKFTRTISPPTLGTLRSCFSWSGGLGDFSRTPSPSPSTALQQFRRKSDSPTSLPENNMSDVSQLKSEESSDDESHPLREEACSSQSQESGEFSLQSSNASKLSQCSSKDSDSEESDCNIKLLDSQSDQTSKLRLSHFSKKDTPLRNKVPGLYKSSSADSLSTTKIKPLGPARASGLSKKPASIQKRKHHNAENKPGLQIKLNELWKNFGFKKDSEKLPPCKKPLSPVRDNIQLTPEAEEDIFNKPECGRVQRAIFQ [EXO1]”: the “solubility change mitosis (log2)” value with HeLa Kyoto [1] turned out to be 0.136. Besides, in the data set on HeLa Kyoto [2], the “solubility in G1/S (log2)” value was -0.442.
The like results for “MGKVLSKIFGNKEMRILMLGLDAAGKTTILYKLKLGQSVTTIPTVGFNVETVTYKNVKFNVWDVGGQDKIRPLWRHYYTGTQGLIFVVDCADRDRIDEARQELHRIINDREMRDAIILIFANKQDLPDAMKPHEIQEKLGLTRIRDRNWYVQPSCATSGDGLYEGLTWLTSNYKS [ARF6]” were, in that order, 0.0647 and 0.0719.
For the sequence “MGLELYLDLLSQPCRAVYIFAKKNDIPFELRIVDLIKGQHLSDAFAQVNPLKKVPALKDGDFTLTESVAILLYLTRKYKVPDYWYPQDLQARARVDEYLAWQHTTLRRSCLRALWHKVMFPVFLGEPVSPQTLAATLAELDVTLQLLEDKFLQNKAFLTGPHISLADLVAITELMHPVGAGCQVFEGRPKLATWRQRVEAAVGEDLFQEAHEVILKAKDFPPADPTIKQKLMPWVLAMIR [GSTT1]”, the “solubility change mitosis (log2)” value in the data set with HeLa Kyoto [1] is -0.295. Besides, the “solubility in G1/S (log2)” value in the data set on HeLa Kyoto [2] worked out at 0.038.
In the case of “MGMKVPGKGESGPSALLTPPMSSSSRGPGAGARRRRTRCRRCRACVRTECGDCHFCRDMKKFGGPGRMKQSCLLRQCTAPVLPHTAVCLLCGEAGKEDTVEGEEEKFGLSLMECTICNEIVHPGCLKMGKAEGVINAEIPNCWECPRCTQEGRTSKDSGEGPGRRRADNGEEGASLGSGWKLTEEPPLPPPPPRRKGPLPAGPPPEDVPGPPKRKEREAGNEPPTPRKKVKGGRERHLKKVGGDACLLRGSDPGGPGLLPPRVLNPSQAFSSCHPGLPPENWEKPKPPLASAEGPAVPSPSPQREKLERFKRMCQLLERVPDTSSSSSDSDSDSDSSGTSLSEDEAPGEARNGRRPARGSSGEKENRGGRRAVRPGSGGPLLSWPLGPAPPPRPPQLERHVVRPPPRSPEPDTLPLAAGSDHPLPRAAWLRVFQHLGPRELCICMRVCRTWSRWCYDKRLWPRMDLSRRKSLTPPMLSGVVRRQPRALDLSWTGVSKKQLMWLLNRLQGLQELVLSGCSWLSVSALGSAPLPALRLLDLRWIEDVKDSQLRELLLPPPDTKPGQTESRGRLQGVAELRLAGLELTDASLRLLLRHAPQLSALDLSHCAHVGDPSVHLLTAPTSPLRETLVHLNLAGCHRLTDHCLPLFRRCPRLRRLDLRSCRQLSPEACARLAAAGPPGPFRCPEEKLLLKDS [FBXL19]”, the “solubility change mitosis (log2)” value in the data set on HeLa Kyoto [1] is -0.126. The “solubility in G1/S (log2)” value in the data set on HeLa Kyoto [2] was -0.317.
As to “MGNLESAEGVPGEPPSVPLLLPPGKMPMPEPCELEERFALVLSSMNLPPDKARLLRQYDNEKKWDLICDQERFQVKNPPHTYIQKLQSFLDPSVTRKKFRRRVQESTKVLRELEISLRTNHIGWVREFLNDENKGLDVLVDYLSFAQCSVMFDFEGLESGDDGAFDKLRSWSRSIEDLQPPSALSAPFTNSLARSARQSVLRYSTLPGRRALKNSRLVSQKDDVHVCILCLRAIMNYQYGFNLVMSHPHAVNEIALSLNNKNPRTKALVLELLAAVCLVRGGHEIILAAFDNFKEVCKELHRFEKLMEYFRNEDSNIDFMVACMQFINIVVHSVEDMNFRVHLQYEFTKLGLEEFLQKSRHTESEKLQVQIQAYLDNVFDVGGLLEDAETKNVALEKVEELEEHVSHLTEKLLDLENENMMRVAELEKQLLQREKELESIKETYENTSHQVHTLRRLIKEKEEAFQRRCHLEPNVRGLESVDSEALARVGPAELSEGMPPSDLDLLAPAPPPEEVLPLPPPPAPPLPPPPPPLPDKCPPAPPLPGAAPSVVLTVGLSAIRIKKPIKTKFRLPVFNWTALKPNQISGTVFSELDDEKILEDLDLDKFEELFKTKAQGPALDLICSKNKTAQKAASKVTLLEANRAKNLAITLRKAGRSAEEICRAIHTFDLQTLPVDFVECLMRFLPTEAEVKLLRQYERERQPLEELAAEDRFMLLFSKVERLTQRMAGMAFLGNFQDNLQMLTPQLNAIIAASASVKSSQKLKQMLEIILALGNYMNSSKRGAVYGFKLQSLDLLLDTKSTDRKMTLLHFIALTVKEKYPDLANFWHELHFVEKAAAVSLENVLLDVKELGRGMELIRRECSIHDNSVLRNFLSTNEGKLDKLQRDAKTAEEAYNAVVRYFGESPKTTPPSVFFPVFVRFIRSYKEAEQENEARKKQEEVMREKQLAQEAKKLDAKTPSQRNKWQQQELIAELRRRQAKEHRPVYEGKDGTIEDIITVLKSVPFTARTAKRGSRFFCDAAHHDESNC [FMNL3]”, the “solubility change mitosis (log2)” value with HeLa Kyoto [1] worked out at 0.267. The “solubility in G1/S (log2)” value with HeLa Kyoto [2] was -0.31.
As for “MGRGLLRGLWPLHIVLWTRIASTIPPHVQKSVNNDMIVTDNNGAVKFPQLCKFCDVRFSTCDNQKSCMSNCSITSICEKPQEVCVAVWRKNDENITLETVCHDPKLPYHDFILEDAASPKCIMKEKKKPGETFFMCSCSSDECNDNIIFSEEYNTSNPDLLLVIFQVTGISLLPPLGVAISVIIIFYCYRVNRQQKLSSTWETGKTRKLMEFSEHCAIILEDDRSDISSTCANNINHNTELLPIELDTLVGKGRFAEVYKAKLKQNTSEQFETVAVKIFPYEEYASWKTEKDIFSDINLKHENILQFLTAEERKTELGKQYWLITAFHAKGNLQEYLTRHVISWEDLRKLGSSLARGIAHLHSDHTPCGRPKMPIVHRDLKSSNILVKNDLTCCLCDFGLSLRLDPTLSVDDLANSGQVGTARYMAPEVLESRMNLENVESFKQTDVYSMALVLWEMTSRCNAVGEVKDYEPPFGSKVREHPCVESMKDNVLRDRGRPEIPSFWLNHQGIQMVCETLTECWDHDPEARLTAQCVAERFSELEHLDRLSGRSCSEEKIPEDGSLNTTK [TGFBR2]”, the “solubility change mitosis (log2)” value in the data set with HeLa Kyoto [1] was -0.067. Further, the “solubility in G1/S (log2)” value in the data set on HeLa Kyoto [2] is -0.228.
Consider “MGSLSGLRLAAGSCFRLCERDVSSSLRLTRSSDLKRINGFCTKPQESPGAPSRTYNRVPLHKPTDWQKKILIWSGRFKKEDEIPETVSLEMLDAAKNKMRVKISYLMIALTVVGCIFMVIEGKKAAQRHETLTSLNLEKKARLKEEAAMKAKTE [FAM162A]”, for which the “solubility change mitosis (log2)” value in the data set on HeLa Kyoto [1] came out at 0.327. Moreover, the “solubility in G1/S (log2)” value in the data set on HeLa Kyoto [2] was found to be 0.312.
For the sequence “MGVALRKLTQWTAAGHGTGILEITPLNEAILKEIIVFVESFIYKHPQEAKFVFVEPLEWNTSLAPSAFESGYVVSETTVKSEEVDKNGQPLLFLSVPQIKIRSFGQLSRLLLIAKTGKLKEAQACVEANRDPIVKILGSDYNTMKENSIALNILGKITRDDDPESEIKMKIAMLLKQLDLHLLNHSLKHISLEISLSPMTVKKDIELLKRFSGKGNQTVLESIEYTSDYEFSNGCRAPPWRQIRGEICYVLVKPHDGETLCITCSAGGVFLNGGKTDDEGDVNYERKGSIYKNLVTFLREKSPKFSENMSKLGISFSEDQQKEKDQLGKAPKKEEAAALRKDISGSDKRSLEKNQINFWRNQMTKRWEPSLNWKTTVNYKGKGSAKEIQEDKHTGKLEKPRPSVSHGRAQLLRKSAEKIEETVSDSSSESEEDEEPPDHRQEASADLPSEYWQIQKLVKYLKGGNQTATVIALCSMRDFSLAQETCQLAIRDVGGLEVLINLLETDEVKCKIGSLKILKEISHNPQIRQNIVDLGGLPIMVNILDSPHKSLKCLAAETIANVAKFKRARRVVRQHGGITKLVALLDCAHDSTKPAQSSLYEARDVEVARCGALALWSCSKSHTNKEAIRKAGGIPLLARLLKTSHENMLIPVVGTLQECASEENYRAAIKAERIIENLVKNLNSENEQLQEHCAMAIYQCAEDKETRDLVRLHGGLKPLASLLNNTDNKERLAAVTGAIWKCSISKENVTKFREYKAIETLVGLLTDQPEEVLVNVVGALGECCQERENRVIVRKCGGIQPLVNLLVGINQALLVNVTKAVGACAVEPESMMIIDRLDGVRLLWSLLKNPHPDVKASAAWALCPCIKNAKDAGEMVRSFVGGLELIVNLLKSDNKEVLASVCAAITNIAKDQENLAVITDHGVVPLLSKLANTNNNKLRHHLAEAISRCCMWGRNRVAFGEHKAVAPLVRYLKSNDTNVHRATAQALYQLSEDADNCITMHENGAVKLLLDMVGSPDQDLQEAAAGCISNIRRLALATEKARYT [ARMC4]”, the “solubility change mitosis (log2)” value in the data set with HeLa Kyoto [1] is 0.00126. Besides, in the data set on HeLa Kyoto [2], the “solubility in G1/S (log2)” value stood at 0.0866.
